# According to article PMC5432316:
# Biological target: recombinant gC1q domain of EMILIN1 (UniProt Q9Y6C2)
# Experiment: cell adhesion assay (CAFCA, Centrifugal Assay for Fluorescence-based Cell Adhesion); ligand as substrate in CAFCA miniplates; calcein AM-labelled cells centrifuged onto the substrate, 20 min at 37°C, then centrifuged at 500 rpm; bound cells read by fluorescence; for HaCat cells also with integrin blocking antibodies
# UniProt Q9Y6C2, sequence (Q9Y6C2 22-1016): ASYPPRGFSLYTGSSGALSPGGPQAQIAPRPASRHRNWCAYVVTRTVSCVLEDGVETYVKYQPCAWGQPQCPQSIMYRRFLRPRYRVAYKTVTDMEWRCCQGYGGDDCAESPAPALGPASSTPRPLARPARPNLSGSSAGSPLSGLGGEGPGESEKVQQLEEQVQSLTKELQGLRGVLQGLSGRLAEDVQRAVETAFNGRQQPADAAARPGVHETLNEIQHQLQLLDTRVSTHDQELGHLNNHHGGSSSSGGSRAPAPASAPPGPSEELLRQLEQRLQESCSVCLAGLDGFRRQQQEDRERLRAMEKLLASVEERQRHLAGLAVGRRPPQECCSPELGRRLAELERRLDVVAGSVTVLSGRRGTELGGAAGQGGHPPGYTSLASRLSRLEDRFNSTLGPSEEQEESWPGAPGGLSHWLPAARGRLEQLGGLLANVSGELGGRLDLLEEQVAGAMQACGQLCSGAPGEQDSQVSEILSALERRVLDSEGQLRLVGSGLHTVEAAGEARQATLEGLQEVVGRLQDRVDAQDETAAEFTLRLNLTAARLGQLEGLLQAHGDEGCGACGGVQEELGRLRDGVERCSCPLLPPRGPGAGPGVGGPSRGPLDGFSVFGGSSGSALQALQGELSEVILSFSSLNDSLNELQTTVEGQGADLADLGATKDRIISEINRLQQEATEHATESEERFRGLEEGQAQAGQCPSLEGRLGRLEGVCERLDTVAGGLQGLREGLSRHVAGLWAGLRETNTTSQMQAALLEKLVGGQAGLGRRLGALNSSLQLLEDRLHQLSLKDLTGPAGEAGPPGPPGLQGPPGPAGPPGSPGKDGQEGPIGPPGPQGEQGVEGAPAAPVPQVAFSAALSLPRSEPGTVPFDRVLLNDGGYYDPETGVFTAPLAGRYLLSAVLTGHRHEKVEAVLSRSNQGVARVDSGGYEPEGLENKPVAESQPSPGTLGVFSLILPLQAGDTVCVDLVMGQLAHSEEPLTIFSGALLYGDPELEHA
row,Substance,percentage of adhesion [%]
1,α4β1 integrin on SW480 cells transfected with the cytoplasmic tail-deleted α4 chain mutant R974 (from UniProt P05556 21-798) (receptor),60
2,α4β1 integrin on SW480 cells transfected with the wild type α4 integrin chain (from UniProt P13612 34-1032; P05556 21-798) (receptor),60
3,α4β1 integrin on HT29 cells transfected with the wild type α4 integrin chain (from UniProt P13612 34-1032; P05556 21-798) (receptor),90
4,α4β1 integrin on HT29 cells transfected with the cytoplasmic tail-deleted α4 chain mutant R974 (from UniProt P05556 21-798) (receptor),90
